According to PMC6070864, “The Bacteriophage T4 MotB Protein, a DNA-Binding Protein, Improves Phage Fitness”:

How the values were obtained:
MotB-His [1] = molecular target: T1, MotB-His (Enterobacteria phage T4, UniProt Q01437 1-162); assay: EMSA; apparent Kd (50% shift); 4 mM Mg acetate; Oligo EMSA/footprint: 40 mM Tris acetate pH 7.9, 20 mM Tris-HCl pH 8.0, 2 mM K phosphate, 60 mM NaCl, 150 mM K glutamate, 4 mM Mg acetate, 0.52 mM EDTA, 0.14 mM DTT, 0.1 mg/mL BSA, 0.004% Triton X-100, 30% glycerol, 1 nM DNA (5 nM in footprint), 37 C 10 min; T4/lambda EMSA: 20 mM Tris-HCl pH 8, 2 mM K phosphate, 60 mM NaCl, 0.42 mM EDTA, 0.04 mM DTT, 0.004% Triton …; settings: protein: recombinant; tags: C-terminal His6; label: 5'-32P top strand
T1 sequence: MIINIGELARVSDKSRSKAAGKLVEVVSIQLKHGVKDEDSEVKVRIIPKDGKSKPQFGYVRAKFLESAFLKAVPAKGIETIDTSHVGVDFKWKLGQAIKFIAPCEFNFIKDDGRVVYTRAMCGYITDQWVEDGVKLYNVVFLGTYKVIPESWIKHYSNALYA

MotB-His [2] = molecular target: T1, MotB-His; assay: EMSA; 4 mM Mg acetate; Oligo EMSA/footprint: 40 mM Tris acetate pH 7.9, 20 mM Tris-HCl pH 8.0, 2 mM K phosphate, 60 mM NaCl, 150 mM K glutamate, 4 mM Mg acetate, 0.52 mM EDTA, 0.14 mM DTT, 0.1 mg/mL BSA, 0.004% Triton X-100, 30% glycerol, 1 nM DNA (5 nM in footprint), 37 C 10 min; T4/lambda EMSA: 20 mM Tris-HCl pH 8, 2 mM K phosphate, 60 mM NaCl, 0.42 mM EDTA, 0.04 mM DTT, 0.004% Triton X-100, 30% glycerol, 37 C 10 …; settings: protein: recombinant; tags: C-terminal His6; label: 5'-32P

B1: dsP8 (37 bp) (dsDNA)
DNA 1: CAGAGACTATAATTAATAAATACAAAAACTATAAATG
DNA 2: CATTTATAGTTTTTGTATTTATTAATTATAGTCTCTG
Binder B1 has a Kd (MotB-His [1]) of 100 ± 30 nM.

In the case of CAGAGACTATAATTAATAAATACAAAAACTATAAATG (ssDNA) [ssP8 (37 nt)], the binding signal (MotB-His [2]) is reported as ~6 fold lower affinity than dsP8.
